What all share (assay): SPR, KD relative to WT C2;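 note: biacore SPR at 37 °C, anti-C2 mAbs captured on anti-human IgG chips with alanine or serine point mutants of C2 as analyte, KD from 1:1 fit compared with wild-type C2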
Background: SPR reads the build-up and loss of mass on a sensor chip optically.

One assay has as its target T1, human C2 K329A (human, UniProt P06681 21-752).
T1 sequence: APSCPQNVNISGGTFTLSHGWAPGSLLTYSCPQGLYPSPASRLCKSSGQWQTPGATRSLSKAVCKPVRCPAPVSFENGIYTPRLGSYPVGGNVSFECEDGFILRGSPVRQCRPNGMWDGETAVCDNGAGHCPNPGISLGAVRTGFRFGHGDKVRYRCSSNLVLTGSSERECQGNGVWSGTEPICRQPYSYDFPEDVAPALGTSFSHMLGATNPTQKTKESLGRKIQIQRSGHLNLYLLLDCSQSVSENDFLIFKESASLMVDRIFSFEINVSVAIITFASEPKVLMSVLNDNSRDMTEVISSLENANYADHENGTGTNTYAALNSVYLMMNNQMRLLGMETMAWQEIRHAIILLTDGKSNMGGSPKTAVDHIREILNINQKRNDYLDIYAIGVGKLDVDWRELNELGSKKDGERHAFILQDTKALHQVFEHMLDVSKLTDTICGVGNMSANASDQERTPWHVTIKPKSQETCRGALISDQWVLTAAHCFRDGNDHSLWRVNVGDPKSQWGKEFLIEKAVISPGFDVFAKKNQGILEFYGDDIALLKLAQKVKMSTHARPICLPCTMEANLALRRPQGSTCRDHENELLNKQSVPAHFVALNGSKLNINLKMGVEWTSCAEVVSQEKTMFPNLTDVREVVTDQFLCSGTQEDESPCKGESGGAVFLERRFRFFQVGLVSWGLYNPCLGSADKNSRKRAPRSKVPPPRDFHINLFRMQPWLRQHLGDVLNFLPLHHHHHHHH

The target of the next assay is T2, human C2 K415A (human, UniProt P06681 21-752).
T2 sequence: T1 sequence with A309K, K395A

The target of the next assay is T3, human C2 A444S (human, UniProt P06681 21-752).
T3 sequence: T1 sequence with A309K, A424S

A further assay deals with T4, human C2 V465A (human, UniProt P06681 21-752).
T4 sequence: T1 sequence with A309K, V445A

Residue numbers refer to the chain shown, from its start.

Method for human C2 A444S: (§1) Surface plasmon resonance (SPR, Biacore) was used for all binding affinity analyses. In brief, goat anti-human IgG was directly immobilised onto the carboxymethyl dextran surface of CM5 sensorchips to approximately 12,000 RU using standard NHS/EDC chemistry at pH 5. The immobilised antibody surface was pre-conditioned with ten injections of polyclonal human IgG (Privigen 60 s) prepared at 1 μg/mL. Ligands (anti-C2 mAbs) were captured at the beginning of each cycle as described below. An adjacent spot or flow cell in which only Polyclonal IgG was capture was used as a reference surface. The goat anti-human IgG Fc antibody surface was regenerate in 100 mM H3PO4, injected for 45 seconds at the end of each cycle. Experiments were performed at 37° C. and the flow rate of each experiment was kept constant at 30 μL/min.
(§2) Sensogram data was double-referenced against a reference anti-IgG surface (i.e. minus anti-C2 mAb) and blank buffer injections obtained within each experiment. The binding data was fit to 1:1 (kinetic or steady-state) model using local Rmax and null refraction index (RI=0) when appropriate. Buffers and solutions were filtered (0.22 μm) prior to use.
Method for human C2 K329A: as §1, §2
Method for human C2 K415A: as §1, §2
Method for human C2 V465A: as §1, §2

B1: RF16-242 (antibody, human IgG4 S228P, lambda, V domains shown)
VH: EVQLLQSGAEVKKPGESLKISCKGSGYSFTSYWIGWVRQMPGKGLEWMGIIYPGDSDTRYSPSFQGQVTISADKSISTAYLQWSSLKASDTAMYYCARRGHYGDYFDYWGQGTLVTVSS
VL: SYELTQPPSVSVSPGQTARITCSGDALPKKYAYWYHQKSGQAPVLVIYEDRRRPSEIPERFSGSSSGTMATLTITGAQVEDEGVYFCYSRDRAGNQRVFGGGTQLTVLG
notes: pH-dependent anti-C2 antibody from a phage display library
With B1, the Fold diff is 2 fold in the assay with human C2 K329A, 1 fold with human C2 K415A, 3 fold with human C2 A444S and 2 fold with human C2 V465A.

For the origin of these results see patent publication US20220332804A1 (CSL INNOVATION, published 2022).
